Laboratory results reported in publication PMC4245140, “Towards Engineering Hormone-Binding Globulins as Drug Delivery Agents” (PLoS ONE, 2014).
Read-outs that look alike come from different tables or passages of the source.

T1: human neutrophil elastase (Homo sapiens, UniProt P08246)
T1 sequence (P08246 30-267): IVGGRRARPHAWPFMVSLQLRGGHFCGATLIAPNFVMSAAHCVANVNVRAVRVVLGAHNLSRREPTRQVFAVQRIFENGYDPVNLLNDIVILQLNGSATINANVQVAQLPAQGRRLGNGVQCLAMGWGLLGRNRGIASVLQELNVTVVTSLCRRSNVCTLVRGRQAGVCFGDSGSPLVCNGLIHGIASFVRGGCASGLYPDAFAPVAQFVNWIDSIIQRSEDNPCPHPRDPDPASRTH


Legend:
[1] = molecular target: T1, human neutrophil elastase; assay: Protease cleavage assay (SDS-PAGE) with human neutrophil elastase; type: biochemical; conditions: protease:CBG 1:100, 37°C
Method: (§1) To determine if a particular target protease is able to cleave the reactive centre loop of an engineered CBG variant, the protease was incubated with CBG at a molar ratio of 1∶100 at 37°C for half an hour unless otherwise specified. Reactive loop cleavage is marked by a characteristic 4 kDa change in molecular weight following release of a peptide when the R-state CBG is unfolded, such as when it is subjected to the denaturing conditions of an SDS-PAGE [14], [22]. We used this as a convenient means by which to check the engineered protein's protease specificity and, as a corollary, its site specificity.

thrombin = molecular target: T2, thrombin (Homo sapiens, UniProt P00734); assay: Protease cleavage assay (SDS-PAGE) with thrombin; type: biochemical; conditions: protease:CBG 1:100, 37°C, half an hour
T2 construct: causes the zymogen, prothrombin, to be cleaved to produce enzymatically-active thrombin
Method: as §1

[2] = parameters: method as in PMID 23783094; conditions: recombinantly expressed wild type CBG; cited from earlier work
[3] = Fluorimetric titration (intrinsic fluorescence quenching) of CBG with cortisol; type: binding; conditions: physiological temperature (37°C)
Method: CBG is known to bind cortisol with a one-to-one stoichiometry, [19]. Therefore, the dissociation constant, which is a measure of binding affinity, is given by the following equation: [drawing 1] (1) where [E]f is the concentration of free CBG, [L]f is the concentration of free ligand, and [E·L] is the concentration of the CBG-ligand complex.
(§2) Fluorescence spectroscopy was used to study the CBG-ligand interactions. Experiments were performed on an LS55 120V fluorescence spectrometer (Perkin Elmer), and the data were read and recorded using their proprietary FL WinLab software. For binding studies of CBG with cortisol, the excitation wavelength was set at 280 nm and the emission was detected at 350 nm, with a 315 nm cut-off filter used to prevent the excitation laser from leaching into the emission channel. For the binding studies of engineered CBG with L-T4-thyroxine-6-carboxyfluorescein, the excitation wavelength was set at 495 nm and emission was recorded at 520 nm whilst applying a 515 nm cut-off filter.
The cortisol stock solution was prepared by dissolving lyophilised cortisol (Sigma Aldrich) in 80% ethanol to make a 500 µM solution, which was then diluted with water to make solutions of 20, 40 and 80 µM, with water being used as a negative control. Aliquots of the ligand solutions were then titrated into 800 µl of a 200 nM solution of CBG made by diluting the protein stock with a buffer containing 10 mM Tris-HCl, pH 7.4, 150 mM NaCl, 1 mM EDTA, 0.1% v/v PEG 8000, and the decrease in fluorescence due to quenching was measured.
(§3) In both cases, the data were fitted using Prism 5 (GraphPad Software) to the following equation to obtain the dissociation constant, Kd: [drawing 2] (2) where ΔF is the fluorescence change, ΔFM is the maximum change in fluorescence signal, [L]t is the total concentration of ligand added and [E]t is the total protein concentration.

[4] = molecular target: prostate specific antigen (PSA) (Homo sapiens, UniProt P07288); assay: Protease cleavage assay (SDS-PAGE) with prostate specific antigen; type: biochemical; conditions: incubation 2-72 hours
Chain of prostate specific antigen (PSA) (P07288 25-261): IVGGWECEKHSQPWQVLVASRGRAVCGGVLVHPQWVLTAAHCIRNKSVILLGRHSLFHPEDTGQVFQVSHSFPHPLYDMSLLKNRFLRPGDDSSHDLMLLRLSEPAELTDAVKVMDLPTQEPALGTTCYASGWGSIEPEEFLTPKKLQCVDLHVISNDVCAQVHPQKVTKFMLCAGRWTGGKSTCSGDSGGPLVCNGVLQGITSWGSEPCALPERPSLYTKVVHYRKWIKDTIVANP
Excerpt: Reactive loop cleavage is marked by a characteristic 4 kDa change in molecular weight following release of a peptide when the R-state CBG is unfolded, such as when it is subjected to the denaturing conditions of an SDS-PAGE [14], [22]. We used this as a convenient means by which to check the engineered protein's protease specificity and, as a corollary, its site specificity.

[5] = Fluorimetric titration of L-T4-thyroxine-6-carboxyfluorescein with engineered CBG; type: binding
Method: as §2
L-T4-thyroxine-6-carboxyfluorescein was previously synthesised and purified as a 1.09 µM solution with acetonitrile as its solvent. This was diluted into a 5 nM solution with a buffer containing 10 mM Tris-HCl, pH 7.4, 150 mM NaCl, 1 mM EDTA, 0.1% v/v PEG 8000. Aliquots of the engineered CBG were titrated into 800 µl of this solution, and increments in fluorescence signal were monitored.
as §3

Cleavage of reactive centre loop by thrombin (thrombin; listed as CBG-Thr349Arg)	Kd ([3]; intact S-state, read-out: Kd for cortisol, S (uncleaved) conformation) [nM]	Fold change in Kd (cortisol) on reactive centre loop cleavage, S to R ([3]; disulphide mutants in absence of TCEP) [fold]	Kd ([3]; reactive centre loop-cleaved R-state, read-out: Kd for cortisol, R (cleaved) conformation) [nM]	Molecule	Cleavage by human neutrophil elastase [1]	Cleavage of reactive centre loop by thrombin (thrombin)	Fold decrease in affinity for cortisol upon cleavage of reactive centre loop [2] [fold]	Cleavage of reactive centre loop by PSA [4]	Affinity for L-thyroxine-6-carboxyfluorescein [5]
successfully cleaved by thrombin				CBG-T349R: Human CBG with P1 threonine of reactive centre loop mutated to arginine (protein, UniProt P08185 23-405, looked up, variant T349R) Corticosteroid-binding …: MDPNAAYVNMSNHHRGLASANVDFAFSLYKHLVALSPKKNIFISPVSISMALAMLSLGTCGHTRAQLLQGLGFNLTERSETEIHQGFQHLHQLFAKSDTSLEMTMGNALFLDGSLELLESFSADIKHYYESEVLAMNFQDWATASRQINSYVKNKTQGKIVDLFSGLDSPAILVLVNYIFFKGTWTQPFDLASTREENFYVDETTVVKVPMMLQSSTISYLHDSELPCQLVQMNYVGNGTVFFILPDKGKMNTVIAALSRDTINRWSAGLTSSQVDLYIPKVTISGVYDLGDVLEEMGIADLFTNQANFSRITQDAQLKSSKVVHKAVLQLNEEGVDTAGSTGVTLNLRSKPIILRFNQPFIIMIFDHFTWSSLFLARVMNPV	further engineering would be required to remove elastase cleavage	same susceptibility to cleavage by thrombin as the CBG-antitrypsinPittsburgh chimera			
	279 ± 18	2.6	734 ± 48	wild-type: Recombinant wild type human corticosteroid binding globulin expressed in E. coli (protein, UniProt P08185 23-405, looked up, expressed in E. coli) Corticosteroid-binding …: MDPNAAYVNMSNHHRGLASANVDFAFSLYKHLVALSPKKNIFISPVSISMALAMLSLGTCGHTRAQLLQGLGFNLTERSETEIHQGFQHLHQLFAKSDTSLEMTMGNALFLDGSLELLESFSADIKHYYESEVLAMNFQDWATASRQINSYVKNKTQGKIVDLFSGLDSPAILVLVNYIFFKGTWTQPFDLASTREENFYVDETTVVKVPMMLQSSTISYLHDSELPCQLVQMNYVGNGTVFFILPDKGKMNTVIAALSRDTINRWSAGLTSSQVDLYIPKVTISGVYDLGDVLEEMGIADLFTNQANFSRITQDAQLKSSKVVHKAVLQLNEEGVDTAGSTGVTLNLTSKPIILRFNQPFIIMIFDHFTWSSLFLARVMNPV		remained unreactive	2.6	no evidence of reactive centre loop cleavage	no affinity
